± gives the uncertainty stated by the source.

A short description of this series: amyloid nucleation score (Sup35N fusion, yeast selection) (log enrichment); library NNK2; higher = more nucleation; inactive = no reads after selection. A digest of the protocol: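 Nucleation score: DiMSum log enrichment of output over input reads, centred on the mode score of non-aggregating sequences. Only sequences with at least 100 input reads were kept. Reads came from Illumina sequencing of plasmid inserts before and after 7 days of growth at 30°C without adenine and uracil, in psi-negative yeast expressing Sup35N fused to peptides of 20 random codons after 24 hours of induction with 100 μM copper sulfate.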
In the case of YMHCNNCSNVHVWAKKKCRE, the amyloid nucleation score stood at 8.432 ± 0.043.

In turn, CSYWNVGYREVRMTDDDTMG came in with an amyloid nucleation score of -0.975 ± 0.53. In the case of LSKYLMQYNTCRLESKS it was -0.336 ± 0.16; in that of ICSCTGTYVVRNRMTGTL, -0.786 ± 0.49. The substance DMCLW registered an amyloid nucleation score of -0.625 ± 0.33. In turn, WVGSCKNVSFMQVIVWIVRL showed an amyloid nucleation score of -0.121 ± 1.1. As to YFTSGNDDSVFDVYRSIWMV, the amyloid nucleation score came out at 2.91 ± 0.13. NEVRYLGTVLACQQRLHTWM: the amyloid nucleation score came out at 1.06 ± 0.29.

In turn, CCSIVSTYRKYLVNRTRWIF showed an amyloid nucleation score of -0.982 ± 0.42.

QVVEYN yielded an amyloid nucleation score of -0.047 ± 0.33. The substance LSVMLTYYGYMPNLYIVVRE returned an amyloid nucleation score of -0.713 ± 0.49.

For YGSWSPHEAGVYT, the amyloid nucleation score entry was “inactive”.

LYLEMMCAIVWQQSYRHNRT showed an amyloid nucleation score of 0.727 ± 0.13. In the case of VTLRTANGDKWKTPASNI it was “inactive”. In the case of AIQLCLWSKRSQGRWFTLPV it was 0.82 ± 0.47; in that of VHSLFVNIRMLCTDGFASTG, 4.479 ± 0.038; in that of WWYPSGLDCFVVSFFRCHCV, -0.107 ± 1. For the substance FTEFPNFNDMSDRVV, the amyloid nucleation score was -0.92 ± 0.64. In the case of ASIPINHPHRVRLNTSYECI, the amyloid nucleation score is -0.657 ± 0.56. In the case of VYYVWRNCLSDCLYYILTYF it was -2.05 ± 0.78; in that of LDRDVVYTCVDCVFGVGILK, -1.19 ± 0.75; in that of TFSFFATVDQMFCCVGRCEW, 8.132 ± 0.03. In turn, NFDGSCKA returned an amyloid nucleation score of -0.853 ± 1.1.

VVRMVHLSADFQGK showed an amyloid nucleation score of 5.26 ± 0.095.

YTRGCSFHIRVSSLCGQYNI had an amyloid nucleation score of 1.65 ± 0.18.

DSEGSA: the amyloid nucleation score entry is “inactive”. Consider TLSSKLFCVKASVRSMGPVV, for which the amyloid nucleation score is 7.723 ± 0.047. With TSFGWSGSCKLMYSMSTSGT, the amyloid nucleation score was 0.636 ± 0.3. The value for YSMPRSN was -0.548 ± 0.45; that for YSIFHFYLKGFGSTW was “inactive”; that for SGWQFQSWRVQRMWLVELSC was 0.494 ± 0.49. VAVDLRGIDGNIYAFQAKIE yielded an amyloid nucleation score of 2.97 ± 0.068. Take PIWWLL: the amyloid nucleation score was -0.822 ± 0.79. The value for DYVRCVDLSN was -0.863 ± 0.63.

CPGRRTISFYSFSFVFRSMN: the amyloid nucleation score result is “inactive”. In turn, YSEMRDSQAVVAYESRVVKP registered an amyloid nucleation score of 0.798 ± 0.46. Take LMHFGMKEEDYWKPCSICIS: the amyloid nucleation score result was “inactive”.

For the substance FGPSRYTRSVFSVEQTSL, the amyloid nucleation score is -0.114 ± 1. In turn, YQMVTCWAYDSQDIGSWCAG returned an amyloid nucleation score of -0.012 ± 1.1. In the case of ETHYPPQ it was 0.033 ± 0.32. In turn, LVSIPSWCPTLASQKLIPR had an amyloid nucleation score of 2.94 ± 0.19. In the case of MCYHDSVNNERINMGVLLHV it was 0.067 ± 0.56.

Substance QCFIWSHRVIVGFHGLGLSA displayed an amyloid nucleation score of -0.02 ± 0.79. KCVLLWWVIKYVCVDTDAAV: the amyloid nucleation score was -0.174 ± 0.74. FMFRQCSQFMMGYYLLNG registered an amyloid nucleation score of 0.313 ± 0.46. Take NTHGR: the amyloid nucleation score came out at 4.61 ± 0.073. Consider YILMHGSHM, for which the amyloid nucleation score was 3.73 ± 0.071.

As to RDMVTVVCTWEKWCCRFPDL, the amyloid nucleation score turned out to be 0.063 ± 0.21. In the case of LYLRRWSPGLVMIQYPIILW, the amyloid nucleation score came to 0.545 ± 0.42. For FYLYFIYGSVCSLSRFNPIR, the amyloid nucleation score turned out to be 1.53 ± 0.1. In the case of CGMNGKTEGEWMGYRKDEGE it was 6.03 ± 0.077; in that of PFSLVTSITFFWSIMCIYAM, 0.57 ± 0.81. Take KTLRCQRMVGYWGIRVDLGR: the amyloid nucleation score was found to be 1.31 ± 0.42. EGCHVGNLDCLPSETATVSV gave an amyloid nucleation score of 0.143 ± 0.79. In the case of VLSYRVHLEPARCFSGGYCY, the amyloid nucleation score worked out at 0.512 ± 0.19. Consider QRLVSLYFRLSDGHMD, for which the amyloid nucleation score was found to be 3.3 ± 0.06. The value for WMIIVA was 0.582 ± 0.54. Substance VFIVL yielded an amyloid nucleation score of 1.65 ± 0.41. In the case of DSDHFA it was -1.58 ± 0.78; in that of DNSHWI, 0.903 ± 0.47. Regarding LRDCFVEYEGSSSMYYLRQW, the amyloid nucleation score was -0.105 ± 0.4. Regarding LVCSNWCIVPFMYGTRHRKE, the amyloid nucleation score came out at 9.299 ± 0.03. Regarding CSPYVRSCTGYVEWGSIRTM, the amyloid nucleation score was determined as 0.06 ± 0.29. In the case of QHYLKPAMARQSLKGIFDQD it was -0.595 ± 0.61. In the case of MYVRVDFVFSNADRTWNPLK it was 3.76 ± 0.08; in that of DHCDAVNSFEEWLMRGVPYN, -0.06 ± 0.45; in that of FNVSVCCG, 0.607 ± 0.65. LENWSNMGENCSTVDRPNLF showed an amyloid nucleation score of -0.4 ± 1.1.

EFWANRYGNHPLLGIHHCSP: the amyloid nucleation score is 0.135 ± 0.77. RVYLFLELIRALSFRTNHCG returned an amyloid nucleation score of -0.245 ± 0.76.

MTLMKDCDMNISHSARAKAS came in with an amyloid nucleation score of 0.255 ± 0.18. With MGLTEEVIKWQGHVGWTWAG, the amyloid nucleation score is 1.55 ± 0.29.

Regarding FYSELKLNGMH, the amyloid nucleation score was -2.04 ± 0.62. For the substance LSRDVHCSRFSHREGLITRT, the amyloid nucleation score turned out to be 0.767 ± 0.74. The substance SKLIVWLTDLASSVSRMLLV registered an amyloid nucleation score of 4.09 ± 0.071. Regarding FECKVVILKCRLGYIFGANN, the amyloid nucleation score was 1.26 ± 0.16. In turn, HLEMRPAMRIPLLRTDFWKV came in with an amyloid nucleation score of 0.665 ± 0.19. The substance PALTIEIMSYGASQHGFSLV registered an amyloid nucleation score of 0.367 ± 0.28.

Regarding LDGFLLSISLRINKRLSSGR, the amyloid nucleation score is 4.79 ± 0.061. For the substance STDAILAGKFCSGH, the amyloid nucleation score was -0.943 ± 0.55. IVGCLGDGVRLL: the amyloid nucleation score was -0.563 ± 0.29.

For YFGVLFPVMNWQLSWKNIYW, the amyloid nucleation score result is “inactive”. As to LSVEFARYTG, the amyloid nucleation score is 1.25 ± 0.15. The value for KGCVMSY was -0.578 ± 1.1; that for VRPRAPSSADNPLQ was 0.121 ± 0.49.

In turn, GFSTRYVFTSLYLKYFNRVY came in with an amyloid nucleation score of -0.476 ± 0.64. Turning to GVMIRKSARYYL, the amyloid nucleation score was -0.275 ± 0.79. INPSWVSCVHFM gave an amyloid nucleation score of 0.062 ± 0.74. Substance FYIYGNSCSPYIML returned an amyloid nucleation score of -0.681 ± 1. Substance IFKINVVVSSNTAQ came in with an amyloid nucleation score of 2.4 ± 0.21.

Substance DAFWCYVDTLYMNRPSQ displayed an amyloid nucleation score of 0.988 ± 0.29. Turning to FFVDMSYPGSWNICYLTRFC, the amyloid nucleation score result is “inactive”. The value for TRSPCGRCDSEFLNASLAGL was 0.71 ± 0.36.

Take YADPFSERYNFSALVFPFNI: the amyloid nucleation score entry was “inactive”. In the case of QLDRCLILPWTFSWCMDCVL it was 4.92 ± 0.053; in that of SCLLVEQLP, 0.864 ± 0.26; in that of QKMRPNIKVFVYKNVGYNWC, 8.562 ± 0.054. Consider DTERRC, for which the amyloid nucleation score is -1.06 ± 0.61. Regarding NSYVKVHSIVG, the amyloid nucleation score result was “inactive”. Take GTVNKSMVTSLTVPLIVC: the amyloid nucleation score was 0.442 ± 0.28. Consider WWVKTVLFKK, for which the amyloid nucleation score is -0.947 ± 0.78. Regarding LLQKDEVRE, the amyloid nucleation score is -0.505 ± 0.3.

With KISCKKNWGAYVPF, the amyloid nucleation score is -0.594 ± 1.1. The value for GMTVNYRRMVQNQRMFGPGI was -0.42 ± 0.37; that for SWKFNRASPSEMMCASNAWN was 0.404 ± 0.8; that for RALLRFMLWFCEIPD was 0.94 ± 0.74. Turning to MHHQSSAFNQGHASPYLSWK, the amyloid nucleation score is 0.741 ± 0.39. In turn, CIKALRVYFYEGFTSTR registered an amyloid nucleation score of -1.89 ± 1.1. The substance SKYKRLYVGTNDIIQLDWSN came in with an amyloid nucleation score of 3.16 ± 0.068. With KVKSLYLSMVQGWMFYV, the amyloid nucleation score is -0.425 ± 0.24. Take LHSVMMLGGRIRPHPQVHSL: the amyloid nucleation score was determined as 0.471 ± 0.26. FEFYLIARIFCPKGLLCESS: the amyloid nucleation score result is “inactive”. Consider QMTLVHK, for which the amyloid nucleation score worked out at 1.67 ± 0.39. In turn, VHFASPRRACRFIRRRYTTH had an amyloid nucleation score of 3.77 ± 0.11. Turning to AASRWVVSHKYRWWMMRLMK, the amyloid nucleation score amounted to 0.302 ± 0.23.

Substance YRPCGRTSPCGSGYKVSNEF returned an amyloid nucleation score of 1.57 ± 0.15. Take MPPGCRMIFALIVVVIQFNF: the amyloid nucleation score was 0.04 ± 0.76. The substance TRNWRGYVCYSEVIIVVKQE returned an amyloid nucleation score of -0.839 ± 0.78. Regarding SVIRMLYD, the amyloid nucleation score is -0.113 ± 0.45. The substance RLNVL showed an amyloid nucleation score of -0.987 ± 0.53. For the substance SSIGKGFSNSYGHAYCKHTW, the amyloid nucleation score was -0.124 ± 0.76. VYRSRAVHATSLGSERFNTD displayed an amyloid nucleation score of 5.17 ± 0.1. Regarding YFVVCAHPESYSIINRFATV, the amyloid nucleation score is 6.311 ± 0.057. The value for ITDGENSFAFLSNRDSS was “inactive”; that for CNCDMLFCTTVSFRVLDTEN was 8.295 ± 0.037; that for VMCSWVGDLWFCESIRAQEV was 8.035 ± 0.047. In the case of QCVGRASCANSVALYLCSVA it was 0.06 ± 0.35. QCKVQCKEWVYNVFAKLQDS showed an amyloid nucleation score of -0.927 ± 1.1.

KIVVSFWLLPCFGKLFFPSV gave an amyloid nucleation score of -0.618 ± 0.76. On to VQDAFVYFNAELRWYDILGQ, for which the amyloid nucleation score is -0.201 ± 0.37.

As to SRVGFFS, the amyloid nucleation score is 0.072 ± 1.1. ASDWLNRNSNS: the amyloid nucleation score is -0.211 ± 0.28.

For the substance DGTAFMARPKETSIPDVSSS, the amyloid nucleation score was -0.593 ± 0.33. As for RIKCRTLLGQFLMAVVIEMY, the amyloid nucleation score stood at 0.309 ± 0.31.

KVPDKGEKLCSLLAFGYQG: the amyloid nucleation score was found to be 0.736 ± 0.8. For the substance NFYKEFGGMIAYLDKILREE, the amyloid nucleation score was -1.13 ± 0.55. Consider SKCCASLTQLITTGVLAYRA, for which the amyloid nucleation score came out at 0.489 ± 0.49. In turn, QETFDFCM displayed an amyloid nucleation score of -1.65 ± 0.64. The substance TYVLWSFTKYRPP yielded an amyloid nucleation score of 1.02 ± 0.66.

Substance WHCLLGLNYLFGYVSYSTSW yielded an amyloid nucleation score of 4.99 ± 0.098.

The values are drawn from the supplement of paper PMC12042874.
